{"source": "the DeepSol protein solubility set"}
{"assay": "soluble on expression in E. coli; label from the status in PepcDB or PDB records"}
{"sequence": "MAEETDVIVVGAGLSGLVAATEIADAGKRVIVVDQEGEQSVGGQAFWSFGGLFLVNSPEQRRLGIKDSFDLAMQDWLGTAGFDRDEDHWPRKWAEAYVAFAAGEKRDWLHAMGHRILPVVGWAERGGYDAMGHGNSVPRFHVTWGTGPGIVEPFERRAREAMKSGRLIFKFRHRVDALSITNGTVDGVSGAVLAPDNVERGKSSSRNVVGEFALKAQAVIVASGGIGGNHELVRQNWPKRLGEPPKFMISGVPEHVDGRMIGITEQAGARLINRDRMWHYVEGIQNWSPIWPRHGIRILPGPSSMWFDATGTRLPAPLFPGSDTLGQLKYIMSTGHDYSWFILTQSIIKKEFALSGSEQNPDLTGKSWRMTLRRATNKGAPAPVEAFKSHGVDFIVRDKIDDLVTAMNKLAGSDLLRLEHIKMQIEARDREIANPYVKDAQVMNIHNARRYIGDKLIRTASPHRILDPAHGPLIAVKLNILTRKTLGGFETDLDSRVFGGEGSIIPGLYAVGEAAGFGGGGVHGYRSLEGTFLGGCLFSGRNAGRAAAKAVG", "soluble on expression in E. coli": "not soluble"}
{"sequence": "MGSDKIHHHHHHMQDLVQAYKEEKNARIKERILAVKLHVVDGKSEKEVSKMLNKGYSTIKLWIGKYKKEGLDGLKDKPRSGRPRKVEEEKIKQILEDKPQKYGIQQEYWTMKTLKIALQEQGIEYKKSRLYELVHELGYNLVKPRPTNIQAEKDKWEDFKKIKKLERKALFFLDECRTVISTSIKKVLAKVGSKPVMRVNIGFSSIYVILAINAWTGEVVVSLAKRPNSESVKYFLRYFKRRVGSGRVYMVMDNYSPHKTKGTLEVCRRKGIHPVFTPPYSPELNMAEAVFKSLKNYMSNKIFYTIEDVKNCIKQFFEENKYRFNLNAITYLGLDKIEV", "soluble on expression in E. coli": "not soluble"}
{"sequence": "GQSAKEAIEAANADFVKAYNSKDAAGVASKYMDDAAAFPPDMARVDGRQNIQKLWQGAMDMGISELKLTTLDVQESGDFAFESGSFSLKAPGKDSKLVDAAGKYVVVWRKGQDGGWKLYRDIWNSDPAK", "soluble on expression in E. coli": "soluble"}
{"sequence": "MAHHHHHHMAKRKYMSKVDGKINVGEKHQAKIPDLVTDENEKTNVEETQPVENVNNVNDDVRKNKKAKTEQVEETTNNAAEEQVQQEEPVETAPAHEEPAHGEEAQGEEVQGEEAQGEEVQGEEVQGEEAHEEPANDEPANDEPANDEPANEEPANEEPANEEPANEEPANEEPANEEPANEEPANE", "soluble on expression in E. coli": "not soluble"}
{"sequence": "MTSLQLSIVHRLPQNYRWSAGFAGSKVEPIPQNGPCGDNSLVALKLLSPDGDNAWSVMYKLSQALSDIEVPCSVLECEGEPCLFVNRQDEFAATCRLKNFGVAIAEPFSNYNPFLEHHHHHH", "soluble on expression in E. coli": "not soluble"}
{"sequence": "MSSGVMVDPDVQTSFQKLSEGRKEYRYIIFKIDENKVIVEAAVTQDQLGITGDDYDDSSKAAFDKFVEDVKSRTDNLTDCRYAVFDFKFTCSRVGAGTSKMDKIIFLQICPDGASIKKKMVYASSAAAIKTSLGTGKILQFQVSDESEMSHKELLNKLGEKYGDH", "soluble on expression in E. coli": "not soluble"}
{"sequence": "MTKKDKKEVKVQTVTTEDGETVKVFEDLQGFETFIANETEDDDFDHLHCKLNYYPPFVLHESHEDPEKISDAANSHSKKFVRHLHQHIEKHLLKDIKQAVRKPELKFHEKSKEETFDKITWHYGEETEYHGRPFKIDVQVVCTHEDAMVFVDYKTHPVGAN", "soluble on expression in E. coli": "soluble"}
{"sequence": "MSDIESLGEAAGLFEEPEDFLPPPPKPHFAEYQRSHITKESKSDVKDIKLRLVGTSPLWGHLLWNAGIYTANHLDSHPELIKGKTVLELGAAAALPSVICALNGAQMVVSTDYPDPDLMQNIDYNIKSNVPEDFNNVSTEGYIWGNDYSPLLAHIEKIGNNNGKFDLIILSDLVFNHTEHHKLLQTTKDLLAEKGQALVVFSPHRPKLLEKDLEFFELAKNEFHLVPQLIEMVNWKPMFDEDEETIEVRSRVYAYYLTHEK", "soluble on expression in E. coli": "soluble"}
{"sequence": "MYAMKEEDCLQTFHNLQDYQDQFHLHHHPQILPWSSTSLPSFDPLHFPSNPTRYSDPVHYFNRRASSSSSSFDYNDGFVSPPPSMDHPQNHLRILSEALGPIMRRGSSFGFDGEIMGKLSAQEVMDAKALAASKSHSEAERRRRERINTHLAKLRSILPNTTKTDKASLLAEVIQHMKELKRQTSQITDTYQVPTECDDLTVDSSYNDEEGNLVIRASFCCQDRTDLMHDVINALKSLRLRTLKAEIATVGGRVKNILFLSREYDDEEDHDSYRRNFDGDDVEDYDEERMMNNRVSSIEEALKAVIEKCVHNNDESNDNNNLEKSSSGGIKRQRTSKMVNRCYN", "soluble on expression in E. coli": "soluble"}
{"sequence": "VISCDDVPEDLETDHLFSSQMVAVVAPEHELAQREAITFDEFFEHELVMFQHGYFHREFLDHVSEEHGFSMKSSFETNLLPLILSIVRQEFAITALLELVTQNEKGVVGIPFHPPVTLDLALAWRKEGYLSIADRTFIDFVKRYV", "soluble on expression in E. coli": "not soluble"}
{"sequence": "MGSDKIHHHHHHMNTSISASWGRYINAIPPRSGEAALAPLSSFVDGQCIYSFGERADQVYQVEFGAVRVYRLAANGRRQILAFHFGGNWFGLQSRDRHSSNAEAIGVTGVRCISLQEEPLFRPALFSAALDNVSAAQEHQLVIGRQSAIERVAAFLLEMSERSGYSRRFELSMSRVDVADYLALTVETVSRSLTKLKHRGFIELHGARGIELVGYRALQNLCL", "soluble on expression in E. coli": "not soluble"}
{"sequence": "MGSDKIHHHHHHMQAKTTLEQWEILQAVIDLGGYTQAANVLHRSQSSVSYQLSLLQERLGIELLTIHGRKAELTPEGENLLAQARSVIRSFHALEARAHSLKMGEQASINLVVDSTFPKDRLFHLLSTFQKQHPATRIHLTEVLRNETSAQLKARDADIYIITQREIDGCAGRWLMNVDFVAVAHSHHPLFSLPTPLSHEALSRYPCVEIVMRTPPHSQPASAESWTFTTFEAATQAVLHQVGYGWLPEARISEHITRGELHILPLQQGERRTTPLYLLAEEKGQPLGKEIIMLIELLFGRL", "soluble on expression in E. coli": "not soluble"}
{"sequence": "MGSDKIHHHHHHMMTYRDAWFELALLTNGRSFPRHTHDEFVISANLSGMETVWLDGETFVATNDMVTTYNPNQLQGSDNAFDRWQCASLYVHPQAFEHYFHQTFLFSQGWNPSAQLASELKQLVTSDLDDSARQERIILLLAGLMEGQHRMLPQSQVKEAERITRIKEGLLNDLSEVPTLDQLAQQESLSVAHLVRSFNQAVGLPPLAWLMQRRMCKARELLRQGTAISQVAGDVGFADQAHFTKAFNRYNAMTPGQFRRINF", "soluble on expression in E. coli": "not soluble"}
{"sequence": "MGSDKIHHHHHHMTNWLPDPSALASPLHSSLALAIAKAISEGKLPKGTQLPTHRKLAEELGLSVHTVSKAYESLRRQRLIDGQVGRGSYVLDLNTPDDQPFQLSSERGRNFDLSISRPAFSQRHAELFQQVLADLPQGLDPSYYLACRPNVGHDAHRAAGETWLRICGLDVPSERIIMTNGVSHGMSAALSALARPGDTVVSSRITHHLLVSGCSYLGLNLVGIDFDQDGMLPDALDRHCSENNAKVLFLLPSLANTTVEMIPEERRQALVQVARKHNLYIIENDAFGPVAEDRPVPVAALAPERTIYLTTFTKCTVSGLRAGYMAAPEHLLPALTGRIVVFGWMATPLMCEIATRWVLDGTALELALWQRRALAERYEIASQALQGHQWRGHPSALHLWLPLESGWTTSSFVAYARQLKVAVAPDAPFLTPKTPPPNAVRISLGSVQDLSRFKQAMELVGGMLSRPPEGVAPLAF", "soluble on expression in E. coli": "not soluble"}
{"sequence": "MSLKILLLVAISCLFVACSNDKEKQQNDVNLSTEASINQSDDMNFKLNLIDGGSISVKKENAVLNFNDEDKVTLFVFFTTWCTPCIAEIPHLNKLQEKYNNDFNIVGVLLEDKSNDEIQKFIEQHKISYKVANGENNYLLAKALGGVNGIPTMFLYNKHSKLINQYLGLIPEEMLEIDIQKAILEGGSHHHHHH", "soluble on expression in E. coli": "soluble"}
{"sequence": "MVVNTHRVPSVDVLLDVITERIGLINGAKKLYTTSGTLVKDINKIKDGQNYVASSSHFTPAAYGGQHQPIQKEVKLKKKKKKRSQTVQPRKTEHIELGDEISIPLNEPVVLEKKKKKKKKLVQKNLDLHGSIETLAETAEIELPSEIEDSEEEDEHEHRRSATPDHHRPATKHSVAPSRASSRRGSRRDEEKREEEDEERKKKDEKKRKSVSSSRRKSQAQHHGQPNWGDLSSFTKNIESLLKN", "soluble on expression in E. coli": "not soluble"}
{"sequence": "MDTNSLLSAGSDMAKAANLSDADIIQLSDAACKQSDQESKIAPAGNKYSVRLTKLMRGFGNMTLNGQKVNYKVYMTEDVNAWAMGNGCVRVYTGLMDLMNDDELRGVIGHEMGHVALGHTKKAMQTAYAVSAARQAAGAAGNSVVASLSASQLGEMTEKFINAQFSQSQETAADDFSFDLLTEKKMNRKGLVTAFQKLAELDGGESSMFSSHPSSPDRAARMEKRLQAGKLEHHHHHH", "soluble on expression in E. coli": "soluble"}
{"sequence": "MAALMTPGTGAPPAPGDFSGEGSQGLPDPSPEPKQLPELIRMKRDGGRLSEADIRGFVAAVVNGSAQGAQIGAMLMAIRLRGMDLEETSVLTQALAQSGQQLEWPEAWRQQLVDKHSTGGVGDKVSLVLAPALAACGCKVPMISGRGLGHTGGTLDKLESIPGFNVIQSPEQMQVLLDQAGCCIVGQSEQLVPADGILYAARDVTATVDSLPLITASILSKKLVEGLSALVVDVKFGAGAVFPNQEQARELAKTLVGVGASLGLRVAAALTAMDKPLGRCVGHALEVEEALLCMDGAGPPDLRDLVTTLGGALLWLSGHAGTQAQGAARVAAALDDGSALGRFERMLAAQGVDPGLARALCSGSPAERRQLLPRAREQEELLAPADGTVELVRALPLALVLHELGAGRSRAGEPLRLGVGAELLVDVGQRLRRGTPWLRVHRDGPALSGPQSRALQEALVLSDRAPFAAPLPFAELVLPPQQ", "soluble on expression in E. coli": "soluble"}
{"sequence": "MSEELPNITTSEKKSFLQSLFSCLFQSEPKNREDLVEVIRDSLENELIDNDTKEMMEGVMEISELRVRDIMIPRPQIVYIDANLPLEACVDLIIESAHSRFPVILDDGKDNIQGMLLAKDLLKYLRSDSAPFDMQKMLRPAVIVPESKRVDRMLKEFRSERFHMAIVVDEFGAVSGLVTIEDILEQIVGDIEDEFDEEEIEPIRQLSRHTYAVSALTDIEKFNAVFATDFVDEEVDTIGGLVMQAFSHLPQRGEQVNLHGIDFKVTSADSRRLIQLRVTVSDEQLEQMERITDLEE", "soluble on expression in E. coli": "not soluble"}
{"sequence": "MIDTHIHSDTRGLEDLELMAMCLDGVITLAHDPFEMKNIKVWEAHVEKLLINELERAKKVGLNLFICVGMHPRAIPPEIDEALDKIKSYINYNSRVVGIGEIGLEKATKEEKEVFIKQLLLAEELNMPAVVHTPRRNKEEVTKIILDEISTLNLKNRDIVIEHCNKETTKWVLDEEFYVGLTIQPGKLTPLEAVEIVKEYKDFADKILLNSDCSSNASDVLAVPRTVLKMKINGIEKDVIYKVAHKNAVNLFGLDI", "soluble on expression in E. coli": "not soluble"}
{"sequence": "MSLEGINPAVIMKAIMQSESVEQLSQEREKAEKLLKMYIAQDVAIHFISNIFTELNDALIVKAIEFSVADMKREGIDLPDIEFCWLSLGSEGRKEQLLRTDLDNAILFRDPENEASRETVQRVFLELGKRVTAILVACGFKPCPAEIMASNPEWCQPLSGWMNYFRKWIGTPEPKALMNSTIFFDFRPVYGSTALALEMKREINTEIARGRGFLQFFAKNALQNPPPLGFFRNFLVEKSREHAHEFDIKARALMPLSDAARVLACEFGVTDFLGTVERFRRIGQLLPSFQELAEEAAQGYEFLMRLRTEHGLAEKSSGRYIDPKHLNKMQRQKLRDLFTTIGKVQSMLNLRYQLDYIRAEGHHHHHH", "soluble on expression in E. coli": "soluble"}
{"sequence": "MATPTEKQILTLAQWFSPAYPVGAFAYSHGLEWSVEAGDVVDARTAQAWITDVLQHGAGWNDCLFIGSAYRAASLQELKNINDTALAFSASSERMMETRLQGEAFCGITASVWPVDLAGLCYPVAVGRAANLVGLPLTLSGQFYLHAFMANLVTAATRLVPLGQTEGQQIIRDLTPLCQAIADTALCANLSHLTSTAFLGDIAAMKHETQYSRMFRTLEHHHHHH", "soluble on expression in E. coli": "not soluble"}
{"sequence": "MCSDVVAGDLNDLRIAALNLGKMSELYTNGAFVLGIAQGADTETYGRPHEWWSYVEQQLATALRFTYDRLNDGQEALLAAIDAYAYVDGDNAKGLTDVGKEYKEYISNPNNVGDEKYYDPPPLHTMVDAPDLGDKPEGWEEKYDG", "soluble on expression in E. coli": "not soluble"}
